The test system of data set [1] is HeLa Kyoto. In words: melting temperature (median over replicates), in situ; higher = more thermally stable.
The test system of data set [2] is HeLa Kyoto. Kind of data set: thermal stability score vs G1/S (z-score of summed log2 fold changes over temperatures); higher = more thermally stable than in G1/S.
The test system of data set [3] is HeLa Kyoto. In words: solubility change mitosis vs G1/S (difference of NP-40 vs SDS log2 ratios) (log2 ratio difference); higher = more soluble in mitosis.
In data set [4] the test system is HeLa Kyoto. In words: solubility in G1/S (NP-40 vs SDS abundance) (log2 ratio); higher = more soluble. As to conditions: cell cycle stage: G1/S.
Where [5] appears, read: cell cycle stage: early G1 (4.5 h after nocodazole release).
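Wherever melting temperature (median over replicates), in situ is given: HeLa Kyoto cells synchronized by double thymidine or nocodazole block, proteins quantified by TMT10plex mass spectrometry, three independent biological replicates.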
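Wherever solubility change mitosis vs G1/S (difference of NP-40 vs SDS log2 ratios) is given: synchronized HeLa Kyoto cells (double thymidine block for G1/S, nocodazole release for mitosis), protein amounts in NP-40 versus SDS lysates quantified by mass spectrometry, three biological replicates.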
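Wherever solubility in G1/S (NP-40 vs SDS abundance) is given: HeLa Kyoto cells arrested at G1/S by double thymidine block, proteins quantified by TMT10plex mass spectrometry in mild NP-40 versus SDS extracts, three biological replicates.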
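Wherever thermal stability score vs G1/S (z-score of summed log2 fold changes over temperatures) is given: synchronized HeLa Kyoto cells, proteins quantified by TMT10plex mass spectrometry, three biological replicates, mitosis taken 0.5 h after nocodazole release, G1/S directly after double thymidine block.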

Sequence of REEP5 (chain, as listed by the source): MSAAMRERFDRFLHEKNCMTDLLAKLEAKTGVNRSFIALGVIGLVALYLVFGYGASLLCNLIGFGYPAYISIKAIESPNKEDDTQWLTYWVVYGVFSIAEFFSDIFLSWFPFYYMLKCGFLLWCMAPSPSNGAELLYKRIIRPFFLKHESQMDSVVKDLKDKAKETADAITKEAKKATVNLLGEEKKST

“MAARWRFWCVSVTMVVALLIVCDVPSASAQRKKEMVLSEKVSQLMEWTNKRPVIRMNGDKFRRLVKAPPRNYSVIVMFTALQLHRQCVVCKQADEEFQILANSWRYSSAFTNRIFFAMVDFDEGSDVFQMLNMNSAPTFINFPAKGKPKRGDTYELQVRGFSAEQIARWIADRTDVNIRVIRPPNYAGPLMLGLLLAVIGGLVYLRRSNMEFLFNKTGWAFAALCFVLAMTSGQMWNHIRGPPYAHKNPHTGHVNYIHGSSQAQFVAETHIVLLFNGGVTLGMVLLCEAATSDMDIGKRKIMCVAGIGLVVLFFSWMLSIFRSKYHGYPYSFLMS [MAGT1]”: the melting temperature in data set [1] (cell cycle stage: G1/S) worked out at 53.9 °C; in data set [1] (cell cycle stage: mitosis), 53.3 °C. The thermal stability score in data set [2] (setting [5]) was found to be 2.09; in data set [2] (cell cycle stage: mitosis), 2.05. In data set [3], the “solubility change mitosis (log2)” value is -0.0398. In addition, the “solubility in G1/S (log2)” value in data set [4] was -0.189.
Consider REEP5, for which the melting temperature came to 55.4 °C in data set [1] (cell cycle stage: G1/S) and 57.6 °C in data set [1] (cell cycle stage: mitosis). In addition, the values for the thermal stability score in data set [2] (setting [5]) and in data set [2] (cell cycle stage: mitosis) were -0.45 and -0.719, respectively. Further, the “solubility change mitosis (log2)” value in data set [3] is -0.114. The “solubility in G1/S (log2)” value in data set [4] is -0.148.
On to “MNEVSVIKEGWLHKRGEYIKTWRPRYFLLKSDGSFIGYKERPEAPDQTLPPLNNFSVAECQLMKTERPRPNTFVIRCLQWTTVIERTFHVDSPDEREEWMRAIQMVANSLKQRAPGEDPMDYKCGSPSDSSTTEEMEVAVSKARAKVTMNDFDYLKLLGKGTFGKVILVREKATGRYYAMKILRKEVIIAKDEVAHTVTESRVLQNTRHPFLTALKYAFQTHDRLCFVMEYANGGELFFHLSRERVFTEERARFYGAEIVSALEYLHSRDVVYRDIKLENLMLDKDGHIKITDFGLCKEGISDGATMKTFCGTPEYLAPEVLEDNDYGRAVDWWGLGVVMYEMMCGRLPFYNQDHERLFELILMEEIRFPRTLSPEAKSLLAGLLKKDPKQRLGGGPSDAKEVMEHRFFLSINWQDVVQKKLLPPFKPQVTSEVDTRYFDDEFTAQSITITPPDRYDSLGLLELDQRTHFPQFSYSASIRE [AKT2]”, for which the melting temperature in data set [1] (cell cycle stage: G1/S) came to 50.5 °C; in data set [1] (cell cycle stage: mitosis), 50.2 °C. The thermal stability score was found to be 1.03 in data set [2] (setting [5]) and 0.619 in data set [2] (cell cycle stage: mitosis). Also, the “solubility change mitosis (log2)” value in data set [3] is -0.26. In addition, the “solubility in G1/S (log2)” value in data set [4] was -0.0498.
Consider TNKS1BP1, for which the melting temperature in data set [1] (cell cycle stage: G1/S) was 57.1 °C; in data set [1] (cell cycle stage: mitosis) it was 59.8 °C. Besides, the figures for the thermal stability score in data set [2] (setting [5]) and in data set [2] (cell cycle stage: mitosis) were -3.49 and -3.6, respectively. In data set [3], the “solubility change mitosis (log2)” value was 0.0438. The “solubility in G1/S (log2)” value in data set [4] was -0.0801.
For the substance “MANPKEKTAMCLVNELARFNRVQPQYKLLNERGPAHSKMFSVQLSLGEQTWESEGSSIKKAQQAVANKALTESTLPKPVQKPPKSNVNNNPGSITPTVELNGLAMKRGEPAIYRPLDPKPFPNYRANYNFRGMYNQRYHCPVPKIFYVQLTVGNNEFFGEGKTRQAARHNAAMKALQALQNEPIPERSPQNGESGKDVDDDKDANKSEISLVFEIALKRNMPVSFEVIKESGPPHMKSFVTRVSVGEFSAEGEGNSKKLSKKRAATTVLQELKKLPPLPVVEKPKLFFKKRPKTIVKAGPEYGQGMNPISRLAQIQQAKKEKEPDYVLLSERGMPRRREFVMQVKVGNEVATGTGPNKKIAKKNAAEAMLLQLGYKASTNLQDQLEKTGENKGWSGPKPGFPEPTNNTPKGILHLSPDVYQEMEASRHKVISGTTLGYLSPKDMNQPSSSFFSISPTSNSSATIARELLMNGTSSTAEAIGLKGSSPTPPCSPVQPSKQLEYLARIQGFQAALSALKQFSEQGLDPIDGAMNIEKGSLEKQAKHLREKADNNQAPPGSIAQDCKKSNSAV [STAU2]”, the melting temperature in data set [1] (cell cycle stage: G1/S) was found to be 49.1 °C; in data set [1] (cell cycle stage: mitosis), 50.3 °C. Moreover, the thermal stability score in data set [2] (setting [5]) turned out to be 0.426; in data set [2] (cell cycle stage: mitosis), 1.69. Besides, the “solubility change mitosis (log2)” value in data set [3] was 0.169. The “solubility in G1/S (log2)” value in data set [4] was -0.227.
For the substance “MNQEKLAKLQAQVRIGGKGTARRKKKVVHRTATADDKKLQSSLKKLAVNNIAGIEEVNMIKDDGTVIHFNNPKVQASLSANTFAITGHAEAKPITEMLPGILSQLGADSLTSLRKLAEQFPRQVLDSKAPKPEDIDEEDDDVPDLVENFDEASKNEAN [BTF3L4]”, the melting temperature in data set [1] (cell cycle stage: G1/S) turned out to be 56.3 °C; in data set [1] (cell cycle stage: mitosis), 54.6 °C. For the same substance, the thermal stability score in data set [2] (setting [5]) was -0.215; in data set [2] (cell cycle stage: mitosis) it was -1.23. The “solubility change mitosis (log2)” value in data set [3] was 0.243. In addition, the “solubility in G1/S (log2)” value in data set [4] was 0.114.
As to “MDFSRNLYDIGEQLDSEDLASLKFLSLDYIPQRKQEPIKDALMLFQRLQEKRMLEESNLSFLKELLFRINRLDLLITYLNTRKEEMERELQTPGRAQISAYRVMLYQISEEVSRSELRSFKFLLQEEISKCKLDDDMNLLDIFIEMEKRVILGEGKLDILKRVCAQINKSLLKIINDYEEFSKERSSSLEGSPDEFSNGEELCGVMTISDSPREQDSESQTLDKVYQMKSKPRGYCLIINNHNFAKAREKVPKLHSIRDRNGTHLDAGALTTTFEELHFEIKPHDDCTVEQIYEILKIYQLMDHSNMDCFICCILSHGDKGIIYGTDGQEAPIYELTSQFTGLKCPSLAGKPKVFFIQACQGDNYQKGIPVETDSEEQPYLEMDLSSPQTRYIPDEADFLLGMATVNNCVSYRNPAEGTWYIQSLCQSLRERCPRGDDILTILTEVNYEVSNKDDKKNMGKQMPQPTFTLRKKLVFPSD [CASP8]”, the melting temperature in data set [1] (cell cycle stage: G1/S) stood at 48.5 °C; in data set [1] (cell cycle stage: mitosis) it was 48.7 °C. In addition, the thermal stability score was 0.959 in data set [2] (setting [5]) and 2 in data set [2] (cell cycle stage: mitosis). Moreover, the “solubility change mitosis (log2)” value in data set [3] was -0.167. In data set [4], the “solubility in G1/S (log2)” value was 0.075.

Source of the values: the supplement of paper PMC5998384.
